From PMC6237754, “A monovalent ion in the DNA binding interface of the eukaryotic junction-resolving enzyme GEN1” come the findings set out here.

This data set concerns the target T1, CtGEN1 (Chaetomium thermophilum, UniProt G0RYN2 1-487).
T1 sequence: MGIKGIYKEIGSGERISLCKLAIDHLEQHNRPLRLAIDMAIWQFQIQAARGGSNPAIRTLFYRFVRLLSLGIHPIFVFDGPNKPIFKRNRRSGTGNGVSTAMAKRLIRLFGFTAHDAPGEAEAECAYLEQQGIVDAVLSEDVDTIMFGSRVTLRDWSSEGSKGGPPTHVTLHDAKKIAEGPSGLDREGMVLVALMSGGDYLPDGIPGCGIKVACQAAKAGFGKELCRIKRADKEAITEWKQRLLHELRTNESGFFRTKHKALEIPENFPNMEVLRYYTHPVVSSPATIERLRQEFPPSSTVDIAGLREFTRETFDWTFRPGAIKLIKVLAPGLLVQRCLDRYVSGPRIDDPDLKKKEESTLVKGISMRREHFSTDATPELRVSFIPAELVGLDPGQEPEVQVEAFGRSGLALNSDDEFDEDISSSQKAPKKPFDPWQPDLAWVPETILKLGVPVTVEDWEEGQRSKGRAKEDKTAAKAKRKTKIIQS
As to the kind of experiment: EMSA; 100 mM KCl; EMSA: equal volumes of DNA in 10 mM Tris pH 7.5, 0.1% BSA, 100 mM KCl or NaCl and CtGEN1 in 10 mM Tris pH 7.5, 100 mM NDSB-195, 0.1% BSA, 1 mM EDTA; 20 min, 20. The note with it: protein: recombinant; tags: C-terminal His6; chain copies: 2; label: 5'-32P; four-way junction; strands b/h/r/x, 50 nt each.

B1: four-way junction 3 (4H) (structured_DNA)
DNA 1: CCTCGAGGGATCCGTCCTAGCAAGGGGCTGCTACCGGAAGCTTACAGATG
DNA 2: CATCTGTAAGCTTCCGGTAGCAGCCTGAGCGGTGGTTGAATTCACAGATG
DNA 3: CATCTGTGAATTCAACCACCGCTCAACTCAACTGCAGTCTAGAACACATG
DNA 4: CATGTGTTCTAGACTGCAGTTGAGTCCTTGCTAGGACGGATCCCTCGAGG
With B1, the binding signal was ~2 fold higher affinity than in Na+.
